Data taken from patent US10357573B2, “Block copolymer conjugate of physiologically active substance” (Nippon Kayaku Kabushiki Kaisha, priority 2015, dated 2019).
Like-named read-outs stand apart in the source and are kept apart here.

Tests used:
[1] = system: human stomach cancer SC-4-JCK; test: Test Example A-5 antitumor effect in human stomach cancer-transplanted nude mouse; type: in vivo; settings: 12 mg/kg as converted to 7-ethyl-10-hydroxycamptothecin, iv once; for Relative tumor volume: 14th day after administration, day of administration = 1.0, average ± SD
Protocol: A tumor mass of human stomach cancer SC-4-JCK that had been subcutaneously subcultured in a nude mouse was cut into a block having a size of about 3 mm on each side, and this block was subcutaneously transplanted on the dorsal side of a nude mouse using a trocar.
A relative tumor volume was determined from the tumor volumes obtained on the day of administration and on the 14th day after the administration, and this was employed as an index for the antitumor effect. The tumor volume was determined by measuring the major axis (L: mm) and the minor axis (W: mm) of the tumor, and calculating the volume by the calculation formula: (L×W^2)/2.

[2] = Light scattering intensity of 1 mg/mL aqueous solution, relative to toluene; type: physicochemical; settings: for relative ratio between the light scattering intensity and the light scattering intensity of toluene: 1 mg/mL aqueous solution vs standard toluene solution under the same conditions; for light scattering intensity of a 1 mg/mL aqueous solution: 1 mg/mL in ultrapure water, 25° C., wavelength 632.8 nm
Protocol: Regarding the measurement sample for the scattering intensity measurement, a solution obtained by adding ultrapure water to a physiologically active substance-conjugated block copolymer to obtain a concentration of 1 mg/mL, dissolving the block copolymer by irradiating the mixture with ultrasonic waves for 10 minutes under ice cooling, and then filtering the solution through a 0.2-μm membrane filter, was used.
Toluene (manufactured by Junsei Chemical Co., Ltd., special grade) that was used for the measurement of the light scattering intensity, was used after being filtered three times through a 0.2-μm membrane filter.

[3] = Test Example A-4 hematotoxicity test in non-tumor bearing rat; type: in vivo, Sprague-Dawley rats; settings: 40 mg/kg as converted to 7-ethyl-10-hydroxycamptothecin; for prolonged hematotoxicity: 7 days after administration; for Number of blood reticulocytes: iv once, 7th day after administration
Description: The resultant solutions were used as analysis samples.

[4] = Volume average particle diameter by dynamic light scattering; type: physicochemical; settings: device A, 1 mg/mL
Protocol: Measurement of the volume average particle diameters of the physiologically active substance-conjugated block copolymers of Examples and Comparative Examples was carried out using a ZetaPotential/Particlesizer NICOMP 380 ZLS (device A; temperature: 25° C.) manufactured by Particle Sizing Systems, LLC, or a particle size zeta potential analyzer, ZETASIZER NANO ZS (device B; measurement temperature: 25° C., analysis model: General Purpose (normal resolution), material RI: 1.59) manufactured by Malvern Instruments, Ltd. Regarding the volume average particle diameter measurement sample, a solution obtained by adding ultrapure water to a physiologically active substance-conjugated block copolymer to obtain a concentration of 1 mg/mL or 5 mg/mL, dissolving the block copolymer by irradiating the mixture with ultrasonic waves for 10 minutes under ice cooling, and then filtering the solution through a 0.2-μm membrane filter, was used.

[5] = Test Example A-3 hepatotoxicity test in non-tumor bearing mouse; type: in vivo, Crl:CD1(ICR)(ICR(IGS)) mice; parameters: ALT: unit not given here; settings: for ALT: iv once, blood plasma 3 days after administration; for hepatotoxicity: maximum tolerated dose iv once, 3 days after administration
Protocol: The blood plasma obtained by centrifuging the blood thus collected (4° C., 1600×g, 10 minutes) was used as a measurement sample, and a blood chemical examination of the measurement sample was performed using an automatic biochemical analysis apparatus Model 7180 (Hitachi High Technologies Corp.).

[6] = for Number of blood reticulocytes: 60 mg/kg as converted to cabazitaxel, iv once, 5th day after administration
Protocol: As a control group, a 5% glucose injection solution was intravenously administered once through the caudal vein.
Polysorbate 80 was added thereto in an amount equal to the amount of anhydrous ethanol, and the mixture was sufficiently mixed. This was used as a preparation stock solution.
After 3, 5, 7, 11, and 14 days from the day of administration of the various compounds, blood was collected through the subclavian vein without anesthesia using a 1-mL disposable syringe with a 26 G needle. About 3 μL of an EDTA-2K solution had been added in advance to the syringe, and this solution was sufficiently mixed with the blood thus collected. The resultant solutions were used as analysis samples. The blood samples were subjected to a blood cell analysis using a blood cell analysis apparatus XT-2000iV (Sysmex Corp.).

[7] = system: human pancreatic cancer BxPC3; test: Test Example C-3 antitumor effect test in human pancreatic cancer-transplanted nude mouse; type: in vivo; settings: for Relative tumor volume: iv once, 8th day after administration, day of administration = 1.0, average ± SD; for antitumor effect: compared to cabazitaxel 30 mg/kg
Protocol: A tumor mass of human pancreatic cancer BxPC3 that had been subcutaneously subcultured in a nude mouse was cut into a block having a size of about 3 mm on each side, and this block was subcutaneously transplanted on the dorsal side of a nude mouse using a trocar.
(§1) A relative tumor volume was determined from the tumor volumes obtained on the day of administration and on the 8th day after the administration, and this was employed as an index for the antitumor effect. The tumor volume was determined by measuring the major axis (L: mm) and the minor axis (W: mm) of the tumor, and calculating the volume by the calculation formula: (L×W^2)/2.

[8] = Maximum tolerated dose / maximum non-lethal dose, single intravenous administration; type: in vivo, mice; settings: iv once through the caudal vein; for maximum tolerated dose: as converted to cabazitaxel
[9] = system: human lung cancer H460; test: Test Example C-4 antitumor effect test in human lung cancer-transplanted nude mouse; type: in vivo; settings: for Relative tumor volume: iv once, 15th day after administration, day of administration = 1.0, average ± SD; for antitumor effect: compared to cabazitaxel 30 mg/kg
Protocol: A tumor mass of human lung cancer H460 that had been subcutaneously subcultured in a nude mouse was cut into a block having a size of about 3 mm on each side, and this block was subcutaneously transplanted on the dorsal side of a nude mouse using a trocar.
as §1, with “15th” for “8th”

[10] = dose 100 mg/kg as converted to 7-ethyl-10-hydroxycamptothecin (maximum tolerated dose)
[11] = 60 mg/kg as converted to cabazitaxel

| Compound | Relative tumor volume [1] | relative ratio between the light scattering intensity and the light scattering intensity of toluene [2] [times] | light scattering intensity of a 1 mg/mL aqueous solution [2] | prolonged hematotoxicity [3] | Number of blood reticulocytes [3] | volume average particle diameter [4] [nm] | ALT [5, 10] | hepatotoxicity [5] | antitumor effect [7, 11] | Relative tumor volume [7, 11] | maximum tolerated dose [8] [mg/kg] | antitumor effect [9, 11] | Relative tumor volume [9, 11] | further results |
| --- | --- | --- | --- | --- | --- | --- | --- | --- | --- | --- | --- | --- | --- | --- |
| 7-ethyl-10-Hydroxycamptothecin (EHC) Conjugate of polyethylene glycol (5 Kilodaltons)-polyglutamic Acid (10.0 Polymer) Block Copolymer [Example A-3] | 1.574 ± 0.388 | 3.0 | 16,750 cps | prolonged hematotoxicity was not recognized | 54.29 ± 8.49 ×10^4/μL | 8 |  |  |  |  |  |  |  | antitumor effect [1]: stronger antitumor effect compared to the Comparative Examples |
| 7-ethyl-10-hydroxycamptothecin (EHC) Conjugate of polyethylene glycol (2 Kilodaltons)-polyglutamic Acid (10.0 Polymer) Block Copolymer [Example A-2] | 2.593 ± 0.482 | 4.9 | 27,149 cps |  |  | 10 | 55 ± 54 | hepatotoxicity was negligible |  |  |  |  |  |  |
| CO[C@H]1C(=O)[C@]2(C)[C@@H](OC)C[C@H]3OC[C@@]3(OC(C)=O)[C@H]2[C@H](OC(=O)c2ccccc2)[C@]2(O)C[C@H](OC(=O)[C@H](O)[C@@H](NC(=O)OC(C)(C)C)c3ccccc3)C(C)=C1C2(C)C [Cabazitaxel, reference compound] |  |  |  |  |  |  |  |  |  |  |  |  |  | prolonged hematotoxicity ([6]; mouse, in vivo): prolonged hematotoxicity was not recognized; Relative tumor volume ([7]; 30 mg/kg): 1.19 ± 0.21; maximum non-lethal dose [8]: 30 mg/kg; Relative tumor volume ([9]; 30 mg/kg): 1.476 ± 0.509 |
| Cabazitaxel (CBZ) and n-butylamine Conjugate of polyethylene glycol (2 Kilodaltons)-α,β-polyaspartic Acid (12.5 Polymer) Block Copolymer [Example C-1] |  |  |  |  |  |  |  |  | stronger tumor proliferation suppressing action | 0.83 ± 0.10 | 60 | stronger tumor proliferation suppressing action | 0.560 ± 0.201 | Number of blood reticulocytes [6]: 52.69 ± 13.95 ×10^4/μL; prolonged hematotoxicity ([6]; 5 days after administration): prolonged hematotoxicity was not recognized |
| 7-ethyl-10-hydroxycamptothecin (EHC) Conjugate of polyethylene glycol (2 Kilodaltons)-polyglutamic Acid (7.6 Polymer) Block Copolymer [Example A-1] | 2.466 ± 0.398 | 3.1 | 17,070 cps | prolonged hematotoxicity was not recognized | 64.18 ± 4.43 ×10^4/μL | 6 | 64 ± 25 | hepatotoxicity was negligible |  |  |  |  |  |  |
| 7-ethyl-10-hydroxycamptothecin (EHC) Conjugate of polyethylene glycol (12 Kilodaltons)-polyglutamic Acid (25 Polymer) Block Copolymer [Comparative Example A-1, reference compound] | 2.232 ± 0.534 | 7.5 | 41,321 cps | prolonged hematotoxicity was recognized | 20.26 ± 11.50 ×10^4/μL | 20 |  |  |  |  |  |  |  |  |
| Cabazitaxel (CBZ) Conjugate of polyethylene glycol (12 Kilodaltons)-α,β-polyaspartic Acid (23.8 Polymer) Block Copolymer [Comparative Example C-1, reference compound] |  |  |  |  |  |  |  |  | stronger tumor proliferation suppressing action | 0.78 ± 0.09 | 60 | stronger tumor proliferation suppressing action | 0.484 ± 0.083 | Number of blood reticulocytes [6]: 18.49 ± 13.10 ×10^4/μL; prolonged hematotoxicity ([6]; 5 days after administration): prolonged hematotoxicity was recognized |
| 7-ethyl-10-hydroxycamptothecin (EHC) Conjugate of polyethylene glycol (3 Kilodaltons)-polyglutamic Acid (6.6 Polymer) Block Copolymer [Comparative Example A-2, reference compound] | 2.426 ± 1.122 | 1.80 | 9,964 cps |  | 66.17 ± 7.74 ×10^4/μL |  | 528 ± 681 | occurrence of hepatotoxicity was acknowledged |  |  |  |  |  | self-association in aqueous solution [2]: non-associating |
| 7-ethyl-10-hydroxycamptothecin (EHC) Conjugate of polyethylene glycol (12 Kilodaltons)-polyglutamic Acid (7.5 Polymer) Block Copolymer [Comparative Example A-3] |  | 1.0 | 5,625 cps |  |  |  |  | hepatotoxicity was clearly manifested |  |  |  |  |  | ALT ([5]; dose 50 mg/kg as converted to 7-ethyl-10-hydroxycamptothecin (maximum tolerated dose)): 114 ± 68; self-association in aqueous solution [2]: non-associating |
| Cabazitaxel (CBZ) Conjugate of polyethylene glycol (5 Kilodaltons)-α-polyaspartic Acid (20.0 Polymer) Block Copolymer [Example C-2] |  |  |  |  |  |  |  |  | stronger tumor proliferation suppressing action | 0.81 ± 0.17 | 60 | stronger tumor proliferation suppressing action | 0.800 ± 0.371 |  |
